Experimental data reported in article doi:10.1101/2023.01.16.524289, “HuR modulation with tanshinone mimics impairs LPS response in murine macrophages”.

Target: rM1M2 HuR (RRM1-RRM2) (UniProt Q15717 18-186)
Assay: HTRF; 20 nM protein, 50 nM probe; TM7nox inhibits with IC50 0.7956 uM (small-molecule IC50, not an affinity); REMSA: 30 min incubation, 4% native gel, buffer not given; HTRF: Cisbio protocol; pull-down: lysis in PEB (20 mM Tris-HCl pH 7.5, 100 mM KCl, 5 mM MgCl2, 0.5% NP-40), binding in TENT (20 mM Tris-HCl pH 8.0, 2 mM EDTA, 500 mM NaCl, 1% Triton X-100), 4 C
Conditions: protein: recombinant; tags: His-tag; label: 5'-biotin; single strand

Sequence of rM1M2 HuR (RRM1-RRM2) (Q15717 18-186): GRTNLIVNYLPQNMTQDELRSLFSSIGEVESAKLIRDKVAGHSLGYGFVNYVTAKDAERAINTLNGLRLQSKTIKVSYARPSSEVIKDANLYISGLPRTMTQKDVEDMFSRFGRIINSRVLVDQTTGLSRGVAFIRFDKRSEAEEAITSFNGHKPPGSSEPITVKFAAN

AUUAUUUAUUAUUUAUUUAUUAUUUA (ssRNA) [Bi-TNF ARE probe (26 nt)]
binding result: binds
